Measured values published in patent US20050036988A1 (published 2005).

Target: the molecule itself
Assay: western immunoblotting of rat liver after chronic CCl4 injury

B1: rat stellate cell activation-associated protein (STAP) (enzyme, UniProt Q921A4 1-190, looked up)
chain: MEKVPGDMEIERRERNEELSEAERKAVQATWARLYANCEDVGVAILVRFFVNFPSAKQYFSQFKHMEDPLEMERSPQLRKHACRVMGALNTVVENLHDPDKVSSVLALVGKAHALKHKVEPMYFKILSGVILDVIAEEFANDFPVETQKAWTKLRGLIYSHVTAAYKEVGWVQQVPNTTTLPATLPSSGP
notes: Detected in rat liver tissue lysates and sections, either endogenous or expressed from rAAV/rSTAP; Immunoblots show monomeric and dimeric forms; also called rSTAP; rat STAP
binding result: binds
